Six substances from patent US20250243263A1 can be followed below.

Assay [1] concerns the target Tau191-214 phospho-peptide (pS199) (human). Kind of assay: one point ELISA. A general note: An ELISA detects its analyte on a solid surface through an enzyme-linked reagent.
The target in assay [2] is Tau191-214 phospho-peptide (pS199/pS202) (human). As to the kind of experiment: one point ELISA.
The target of assay [3] is Tau191-214 phospho-peptide (pS199/pS202/pT205) (human). As to the kind of experiment: one point ELISA.
Assay [4] addresses Tau191-214 phospho-peptide (pS199/pT205) (human). As to the kind of experiment: one point ELISA.
Assay [5] concerns the target Tau191-214 phospho-peptide (pS202) (human). As to the kind of experiment: one point ELISA.
Assay [6] has as its target Tau191-214 phospho-peptide (pS202/pT205) (human). As to the kind of experiment: one point ELISA.
For assay [7], the target named is Tau191-214 phospho-peptide (pT205) (human). Kind of assay: one point ELISA.
Assay [8] deals with pS199-old (SCBio-4PEG-Peptide, Tau191-214) (human). Kind of assay: one point ELISA.
Assay [9] has as its target AT8 peptide (amino acids 195-215 of tau) (human). As to the kind of experiment: BLI (Octet), phospho-peptide on streptavidin tips. In general terms: Biolayer interferometry detects binding as a change in optical thickness at a sensor tip.
For assay [10], the target named is Tau204-222 phospho-peptide (pS214) (human). As to the kind of experiment: one point ELISA.
For assay [11], the target named is Tau204-222 phospho-peptide (pS214/pT217) (human). As to the kind of experiment: one point ELISA.
Assay [12] addresses Tau204-222 phospho-peptide (pT212) (human). As to the kind of experiment: one point ELISA.
Assay [13] has as its target Tau204-222 phospho-peptide (pT212/pS214) (human). As to the kind of experiment: one point ELISA.
Assay [14] deals with Tau204-222 phospho-peptide (pT212/pS214/pT217) (human). As to the kind of experiment: one point ELISA.
In assay [15] the target is Tau204-222 phospho-peptide (pT212/pT217) (human). Kind of assay: one point ELISA.
The target of assay [16] is Tau204-222 phospho-peptide (pT217) (human). As to the kind of experiment: one point ELISA.
The target of assay [17] is tPeptide 5 (204-222) (human). Kind of assay: one point ELISA.
In assay [18] the target is Tau217-234 phospho-peptide (pT217/pT220/pT231) (human). Kind of assay: BLI.
The target in assay [19] is Tau225-240 phospho-peptide (pT231) (human). Kind of assay: BLI.

Tau191-214 phospho-peptide (pS202) (human), sequence (peptide, as listed by the source): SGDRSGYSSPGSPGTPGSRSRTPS
AT8 peptide (amino acids 195-215 of tau) (human), sequence (peptide, as listed by the source): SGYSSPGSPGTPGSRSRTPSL

“anti-tau antibody AT8 (ThermoFisher, Waltham, MA)”: the OD (450 nm) in assay [1] was determined as 0.056 OD450; in assay [2], 2.39 OD450; in assay [3], 3.07 OD450; in [4] it was 0.139 OD450; in assay [5] it was 0.058 OD450; in assay [6] it was 2.94 OD450. Further, the results for the OD (450 nm) in [7] and in assay [8] were 0.065 OD450 and 0.056 OD450, respectively. The Kd – broadly, the free concentration of one partner at which half of the binding sites on the other are occupied at equilibrium, for simple one-to-one binding – in assay [9] stood at 309 pM.

For the substance hIgG1 isotype control (antibody), the OD (450 nm) in [1] was determined as 0.058 OD450; in assay [2], 0.062 OD450; in assay [3], 0.245 OD450; in [4], 0.09 OD450; in [5] it was 0.055 OD450; in assay [6] it was 0.249 OD450. Further, the OD (450 nm) in assay [7] worked out at 0.054 OD450; in assay [10], 0.061 OD450; in [11], 0.059 OD450; in assay [12], 0.06 OD450; in assay [13] it was 0.059 OD450; in [14], 0.053 OD450. In addition, the OD (450 nm) in assay [15] is 0.057 OD450; in assay [16], 0.083 OD450; in assay [8] it was 0.06 OD450; in assay [17], 0.141 OD450.

As to PT3-hIgG1 (antibody), the OD (450 nm) in [10] is 3.14 OD450; in assay [11], 3.13 OD450; in assay [12], 3.16 OD450; in assay [13] it was 3.14 OD450; in [14], 3.17 OD450; in assay [15] it was 3.16 OD450. Also, the figures for the OD (450 nm) in assay [16] and in assay [17] were 3.13 OD450 and 2.81 OD450, respectively.

IPN002-hIgG1 (antibody): the OD (450 nm) in [17] is 0.281 OD450.

Turning to “anti-tau antibody AT100 (ThermoFisher, Waltham, MA)”, the OD (450 nm) worked out at 0.065 OD450 in [10]; 0.067 OD450 in assay [11]; 0.069 OD450 in assay [12]; 0.071 OD450 in assay [13]; 0.187 OD450 in assay [14]; 0.069 OD450 in [15]. Further, the OD (450 nm) in assay [16] came to 0.068 OD450.

Regarding AT180 (antibody), the values for the equilibrium dissociation constant (Kd) in [18] and in assay [19] were 5 pM and 6 pM, respectively.
